Measurements: patent publication KR20160085666A (dated 2016)
Each block holds one binder with its values, some of them ahead of it.

Biological target: T1, c-Met-Fc (#358-MT/CF, R&D Systems) (UniProt P08581 25-932)
T1 construct: Bought reagent; also called 항원(c-Met); not shown: Fc part of the bought fusion
Assay: SPR, Biacore T100; antibody captured on human Fab binder on a CM5 chip, c-Met-Fc injected at various concentrations

T1 sequence (P08581 25-932 limits assumed): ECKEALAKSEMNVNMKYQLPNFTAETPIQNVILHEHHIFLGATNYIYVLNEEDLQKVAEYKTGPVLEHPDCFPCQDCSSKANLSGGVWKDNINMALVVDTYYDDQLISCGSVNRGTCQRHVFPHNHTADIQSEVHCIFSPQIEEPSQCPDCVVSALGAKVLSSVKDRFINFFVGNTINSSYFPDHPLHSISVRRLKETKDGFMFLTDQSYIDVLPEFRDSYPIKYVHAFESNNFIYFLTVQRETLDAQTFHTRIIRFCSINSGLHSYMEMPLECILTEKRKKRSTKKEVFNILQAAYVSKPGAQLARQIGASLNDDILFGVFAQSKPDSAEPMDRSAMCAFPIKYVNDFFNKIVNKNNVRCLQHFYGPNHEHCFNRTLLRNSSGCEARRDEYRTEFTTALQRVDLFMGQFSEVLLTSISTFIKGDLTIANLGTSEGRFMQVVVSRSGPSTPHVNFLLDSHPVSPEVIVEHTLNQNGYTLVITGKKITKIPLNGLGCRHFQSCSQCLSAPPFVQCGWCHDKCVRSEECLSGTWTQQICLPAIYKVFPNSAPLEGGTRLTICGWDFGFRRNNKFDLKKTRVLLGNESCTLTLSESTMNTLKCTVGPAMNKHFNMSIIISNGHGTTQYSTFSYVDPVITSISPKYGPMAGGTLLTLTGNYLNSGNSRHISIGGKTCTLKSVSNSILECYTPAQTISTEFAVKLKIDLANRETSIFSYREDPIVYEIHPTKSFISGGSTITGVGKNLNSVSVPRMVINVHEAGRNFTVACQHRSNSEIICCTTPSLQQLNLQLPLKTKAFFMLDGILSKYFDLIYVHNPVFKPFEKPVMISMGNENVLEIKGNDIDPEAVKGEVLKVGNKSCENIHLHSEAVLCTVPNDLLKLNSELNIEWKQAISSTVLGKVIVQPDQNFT

Kd: 0.057 nM
B1: 항 c-Met 항체 (L3-1Y/IgG2), GSKO301 세포 생산 (antibody, V domains shown)
VH: EVQLVESGGGLVQPGGSLRLSCAASGFTFTDYYMSWVRQAPGKGLEWLGFIRNKANGYTTEYSASVKGRFTISRDNSKNTLYLQMNSLRAEDTAVYYCARDNWFAYWGQGTLVTVSS
VL: DIQMTQSPSSLSASVGDRVTITCKSSQSLLASGNQNNYLAWYQQKPGKAPKMLIIWASTRVSGVPSRFSGSGSGTDFTLTISSLQPEDFATYYCQQSYSRPYTFGQGTKVEIKR
notes: Produced in GS-KO CHO cells that express the antibody only (GSKO301); also called STD (12A37); GSKO301 생산 항체

Kd: 0.076 nM
B2: 항 c-Met 항체 (L3-1Y/IgG2), GSKO301 GOT1 세포 생산 (antibody, V domains shown)
VH: B1 VH
VL: B1 VL
notes: Produced in GS-KO CHO cells that express the antibody and overexpress GOT1 (GSKO301 GOT1); also called GSKO301 GOT1 생산 항체; anti-c-Met antibody L3-1Y/IgG2
